For experiment [1], the target named is T1, MET928 (cMET protein derived from construct 25-928) (human, UniProt P08581 25-928).
T1 construct: MET ectodomain, residues 1-24 are the leader; produced in Lec 8 cells; background text says the ectodomain is furin-cleaved into alpha (25-307) and beta chains; biotinylated form used in selections; also called MET928 extracellular domain; Met extracellular domain
Put plainly: SPR (Biacore), CM5 chip coated with MET928. In general terms: Surface plasmon resonance follows binding to a sensor surface in real time, without labels.

Experiment [2] concerns the target T2, MET928.6H (hexahistine tagged MET928) (human, UniProt P08581 25-928).
T2 construct: also called MET ectodomain; not shown: hexahistidine tag
Put plainly: plate binding assay: 100 nM MET928.6H added to NK1-coated microplate, bound MET detected with anti-5xHis and DELFIA Eu-N1 anti-mouse IgG (time-resolved fluorescence) [right panel]. On the procedure:
FAb at 5-500 nM (FIG. 8) was mixed with 100 nM MET928.6H (hexahistine tagged MET928) and the mixture incubated at room temperature for one hour, prior to addition of the MET928.6H/FAb mixture to microplates coated with HGF/SF or the fragment NK1 and a further one-hour incubation. Bound MET928.6H was then detected with anti-5xHis (Qiagen) followed by DELFIA® Eu-N1 rabbit anti-mouse-IgG, exposure to DELFIA® enhancement solution and quantitation by time-resolved fluorescence on a Fusion instrument (Perkin Elmer).

For experiment [3], the target named is T1, MET928 (cMET protein derived from …). Put plainly: Biacore SPR.
Experiment [4] deals with T3, MET567 (MET extracellular domain aa 25-567) (human, UniProt P08581 25-567).
T3 construct: beta-propeller + cystine-rich domain
Put plainly: analytical size exclusion chromatography (Superdex 200 10/300) [Cont.]. On the procedure: Epitope location was analysed by analytical size exclusion chromatography. […] The mixtures were then centrifuged to remove any debris and analysed on a Superdex 200 10/300 size exclusion column (GE Life Sciences).
(In general: SEC sorts molecules by how far they enter the pores of the column.)

The target in experiment [5] is T1, MET928 (cMET protein derived from …). Put plainly: Biacore SPR, MET928-coated surface, 1:1 kinetic analysis. An excerpt:
In FIG. 15, “hinged” His-tagged, IMAC-purified Fabs were used.

For experiment [6] the target is unchanged. Put plainly: Biacore SPR, MET928-coated surface. The text has this: Since scFv can multimerise, possibly complicating analysis, we also analysed the biological activity of monomeric 7A2 scFv. 8×His-tagged 7A2 scFv (Table 14) was expressed in P. pastoris induced with Methanol over 3 days. Conditioned media was concentrated using a Sartorius Slice Disposable (10 kD nominal molecular weight cut-off) and the scFv purified on a HisTrap column (GE Life Sciences). Monomeric 7A2 scFv (FIG. 11) was isolated by size exclusion using a Superdex 200 16/60 prep grade column (GE Life Sciences).

Experiment [7] deals with human MET (c-Met) on cells (SKOV-3, BxPC3) (human, UniProt P08581 25-1390). Kind of experiment: cell-based or functional assay.
The target in experiment [8] is T1, MET928 (cMET protein derived from …). Put plainly: Biacore SPR, MET-928 on chip, scFv format. Here is the method: The binding characteristics of 7A2 and its derivatives were measured using a GE Healthcare Biacore biosensor.

Broadly, the Kd is the equilibrium constant for the complex coming apart. A higher Kd goes with lower affinity. Broadly, the koff is a measure of how fast the partners let go of each other. A low value points to slow dissociation. Usually kon stands for a measure of how fast the partners come together. Higher therefore signals faster complex formation.

human MET (c-Met) on cells (SKOV-3, BxPC3), sequence (P08581 25-1390): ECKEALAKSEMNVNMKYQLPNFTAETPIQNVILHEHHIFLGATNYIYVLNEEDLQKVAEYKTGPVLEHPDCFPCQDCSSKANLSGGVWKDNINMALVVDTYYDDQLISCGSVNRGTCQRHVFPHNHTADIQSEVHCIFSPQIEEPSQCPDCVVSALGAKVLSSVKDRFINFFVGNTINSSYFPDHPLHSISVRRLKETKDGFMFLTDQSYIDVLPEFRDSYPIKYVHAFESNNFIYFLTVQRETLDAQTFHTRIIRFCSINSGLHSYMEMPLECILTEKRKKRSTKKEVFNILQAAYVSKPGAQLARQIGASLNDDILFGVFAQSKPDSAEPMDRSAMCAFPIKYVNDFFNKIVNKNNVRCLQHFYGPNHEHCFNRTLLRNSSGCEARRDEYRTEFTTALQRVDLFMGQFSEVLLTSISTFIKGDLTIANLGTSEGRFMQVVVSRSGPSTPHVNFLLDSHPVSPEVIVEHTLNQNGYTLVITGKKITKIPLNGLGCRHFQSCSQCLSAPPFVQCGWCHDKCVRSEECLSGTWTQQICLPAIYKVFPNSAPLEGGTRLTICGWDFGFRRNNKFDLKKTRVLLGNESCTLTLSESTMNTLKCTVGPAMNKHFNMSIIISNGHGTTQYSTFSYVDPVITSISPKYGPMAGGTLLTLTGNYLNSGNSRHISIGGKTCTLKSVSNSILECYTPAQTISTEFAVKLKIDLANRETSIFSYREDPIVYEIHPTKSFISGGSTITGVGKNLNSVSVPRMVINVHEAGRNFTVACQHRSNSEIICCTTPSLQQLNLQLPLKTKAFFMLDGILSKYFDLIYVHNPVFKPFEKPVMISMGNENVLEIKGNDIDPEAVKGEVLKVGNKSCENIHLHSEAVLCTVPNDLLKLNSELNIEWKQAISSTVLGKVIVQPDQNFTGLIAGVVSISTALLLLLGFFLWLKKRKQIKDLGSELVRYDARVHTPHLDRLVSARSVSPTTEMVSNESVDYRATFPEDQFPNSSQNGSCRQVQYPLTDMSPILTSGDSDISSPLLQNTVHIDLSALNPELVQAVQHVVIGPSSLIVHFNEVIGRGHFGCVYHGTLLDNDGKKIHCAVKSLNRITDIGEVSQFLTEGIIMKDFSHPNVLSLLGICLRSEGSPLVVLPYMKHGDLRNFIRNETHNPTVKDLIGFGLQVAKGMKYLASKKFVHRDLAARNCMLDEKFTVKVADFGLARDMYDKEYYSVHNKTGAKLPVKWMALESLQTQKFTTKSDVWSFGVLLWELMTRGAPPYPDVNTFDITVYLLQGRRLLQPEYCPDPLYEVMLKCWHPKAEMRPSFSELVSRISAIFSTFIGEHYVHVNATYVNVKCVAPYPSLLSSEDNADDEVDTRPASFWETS
T1 sequence (P08581 25-928): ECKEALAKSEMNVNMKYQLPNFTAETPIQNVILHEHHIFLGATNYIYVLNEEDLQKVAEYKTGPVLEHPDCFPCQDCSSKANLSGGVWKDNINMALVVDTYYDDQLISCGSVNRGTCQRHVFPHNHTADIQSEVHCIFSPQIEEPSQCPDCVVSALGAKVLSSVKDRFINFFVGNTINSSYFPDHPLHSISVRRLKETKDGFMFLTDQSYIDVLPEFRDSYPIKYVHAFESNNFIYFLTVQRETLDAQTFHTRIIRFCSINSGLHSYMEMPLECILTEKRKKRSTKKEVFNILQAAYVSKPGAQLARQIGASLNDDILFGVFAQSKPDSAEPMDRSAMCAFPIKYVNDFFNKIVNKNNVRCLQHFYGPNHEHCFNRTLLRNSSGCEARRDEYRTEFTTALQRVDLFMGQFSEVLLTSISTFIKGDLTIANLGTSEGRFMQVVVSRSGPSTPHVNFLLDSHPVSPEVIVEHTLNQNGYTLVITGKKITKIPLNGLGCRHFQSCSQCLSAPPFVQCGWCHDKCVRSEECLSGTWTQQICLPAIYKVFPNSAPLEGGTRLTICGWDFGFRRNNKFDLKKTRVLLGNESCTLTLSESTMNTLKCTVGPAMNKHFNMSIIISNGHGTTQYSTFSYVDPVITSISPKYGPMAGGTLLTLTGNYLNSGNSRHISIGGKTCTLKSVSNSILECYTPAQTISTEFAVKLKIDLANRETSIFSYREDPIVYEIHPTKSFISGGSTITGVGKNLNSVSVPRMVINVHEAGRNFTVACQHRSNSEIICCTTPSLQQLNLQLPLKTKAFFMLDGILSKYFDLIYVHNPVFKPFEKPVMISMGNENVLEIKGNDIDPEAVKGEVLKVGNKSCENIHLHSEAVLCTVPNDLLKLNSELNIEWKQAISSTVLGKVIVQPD
T3 sequence (P08581 25-567): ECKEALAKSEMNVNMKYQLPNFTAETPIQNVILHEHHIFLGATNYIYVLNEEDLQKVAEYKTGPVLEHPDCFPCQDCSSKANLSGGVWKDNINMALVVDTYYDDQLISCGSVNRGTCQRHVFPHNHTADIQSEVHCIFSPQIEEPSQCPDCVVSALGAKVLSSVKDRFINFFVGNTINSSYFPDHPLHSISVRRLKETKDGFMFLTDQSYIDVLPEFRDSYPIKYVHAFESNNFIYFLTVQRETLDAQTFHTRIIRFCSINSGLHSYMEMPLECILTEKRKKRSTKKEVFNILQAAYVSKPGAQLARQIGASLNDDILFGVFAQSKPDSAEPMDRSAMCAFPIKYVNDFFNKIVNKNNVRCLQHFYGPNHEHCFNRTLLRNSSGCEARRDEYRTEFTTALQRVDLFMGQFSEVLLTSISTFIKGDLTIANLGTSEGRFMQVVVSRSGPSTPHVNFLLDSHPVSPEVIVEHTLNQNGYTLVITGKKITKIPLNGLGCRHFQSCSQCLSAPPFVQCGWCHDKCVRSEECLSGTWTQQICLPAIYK
T2 sequence (P08581 25-928): as the sequence (P08581 25-928) above

B1: NK1 fragment of HGF/SF (produced in Pichia pastoris) (ligand)
chain: EAEAYVEGQRKRRNTIHEFKKSAKTTLIKIDPALKIKTKKVNTADQCADRCTRNKGLPFTCKAFVFDKARKQCLWFPFNSMSSGVKKEFGHEFDLYENKDYIRNCIIGKGRSYKGTVSITKSGIKCQPWSSMIPHEHSFLPSSYRGKDLQENYCRNPRGEEGGPWCFTSNPEVRYEVCDIPQCSEVE
notes: The first two (EA) or four (EAEA) amino acids may be removed during processing; also called NK1.B1; NK1.B2
For the molecule B1, the binding result in experiment [1] and in experiment [2] was “binds” in each case.

B2: 7A2 Fab (tagless, hinged) (Fab, V domains shown)
VH: QMQLVQSGAEVKKPGAPVKVSCKVSGYTFTDYYMHWVQQAPGKGLEWMGLVDPEDGETIYAEKFQGRVTITADTSTDTAYMELSSLRSEDTAVYYCATDATTPYYGMDVWGQGTLVTVSS
VL: DIQMTQSPSSLSASVGDRVTITCQASQDISNYLNWYQQKPGRAPKVLIYDASNLETGVPSRFSGSGSGTEFTLTISNLRPDDFATYYCQQGDSFPLTFGGGTKVEIKR
notes: Purified on KappaSelect; also called Tagless 7A2
In experiment [3], B2 yielded a Kd of 181 nM, a koff of 0.108 s⁻¹ and a kon of 597000 M⁻¹ s⁻¹. Moreover, the binding result in experiment [4] is “no binding (tested: 6 µM Fab with 4 µM MET567)”.

B3: 107_A07 Fab (tagless, native, i.e. not hinged) (Fab, V domains shown)
VH: QMQLVQSGAEVKKPGAPVKVSCKVSGYTFTDYYMHWVQQAPGKGLEWMGLVDPEDGETIYAEKFQGRVTITADTSTDTAYMELSSLRSEDTAVYYCATDATTPYWGMMWWGQGTLVTVSS
VL: DIQMTQSPSSLSASVGDRVTITCQASQDISNYLNWYQQKPGRAPKVLIYDASNLETGVPSRFSGSGSGTEFTLTISNLRPDDFATYYCQQGDSFPLTFGGGTKVEIKR
For the molecule B3, in experiment [5], the affinity, expressed as Kd, was 4.2 nM; the koff came to 0.0075 s⁻¹; the kon is 1.8e+06 M⁻¹ s⁻¹. Also, in experiment [4], the binding result is on record as “no binding (tested: 6 µM Fab with 4 µM MET567)”.

B4: monomeric 7A2 scFv (8xHis-tagged, expressed in P. pastoris) (scFv)
scFv: EAEAQMQLVQSGAEVKKPGAPVKVSCKVSGYTFTDYYMHWVQQAPGKGLEWMGLVDPEDGETIYAEKFQGRVTITADTSTDTAYMELSSLRSEDTAVYYCATDATTPYYGMDVWGQGTLVTVSSLEGGGGSGGGGSGGGASDIQMTQSPSSLSASVGDRVTITCQASQDISNYLNWYQQKPGRAPKVLIYDASNLETGVPSRFSGSGSGTEFTLTISNLRPDDFATYYCQQGDSFPLTFGGGTKVEIKRPRHHHHHHHH
notes: Monomer isolated by size exclusion chromatography
In experiment [6], B4 displayed a Kd of 3.62 nM, a koff of 0.00212 s⁻¹ and a kon of 586000 M⁻¹ s⁻¹.

B5: 7A2 scFv (expressed in E. coli, 6xHis/tri-Flag tags) (scFv)
scFv: QMQLVQSGAEVKKPGAPVKVSCKVSGYTFTDYYMHWVQQAPGKGLEWMGLVDPEDGETIYAEKFQGRVTITADTSTDTAYMELSSLRSEDTAVYYCATDATTPYYGMDVWGQGTLVTVSSLEGGGGSGGGGSGGGASDIQMTQSPSSLSASVGDRVTITCQASQDISNYLNWYQQKPGRAPKVLIYDASNLETGVPSRFSGSGSGTEFTLTISNLRPDDFATYYCQQGDSFPLTFGGGTKVEIK
notes: also called 084-G02; antibody 7A2; not shown: 6xHis/tri-FLAG tags of pSANG10-3F
Consider B5, for which, in experiment [7], the “IC50 (nM), inhibition of HGF/SF-induced migration of SKOV-3 cells, Assay 1” value came out at 2.1 nM; the “IC50 (nM), inhibition of HGF/SF-induced migration of SKOV-3 cells, Assay 2” value was found to be 2.5 nM; the “IC50 (nM), inhibition of HGF/SF-induced migration of SKOV-3 cells, Mean” value was 2.3 nM. In experiment [8], this molecule had an equilibrium dissociation constant (Kd) of 12.3 nM, a koff of 0.646 s⁻¹ and a kon of 5.25e+07 M⁻¹ s⁻¹.

(Values after patent publication US20150147274A1 (CANCER RESEARCH TECHNOLOGY, published 2015).)
